Experimental data taken from patent US20210253733A1.

Assays:
[1] = target: human CD163 ECD with a C-terminal 8 histidine tag (HEK293-6E) (human) (UniProt Q86VB7); assay: binding titration on recombinant huCD163 ECD
[2] = target: truncated human CD163 ECD SRCR domain 1-5 fragment with C-terminus histidine tag (HEK293-6E) (human) (UniProt Q86VB7); assay: binding titration on truncated huCD163 SRCR 1-5
[3] = target: truncated human CD163 ECD SRCR domain 1-5 fragment with C-terminus histidine tag (HEK293-6E) (human) (UniProt Q86VB7); assay: ratio of EC50 on huCD163 SRCR 1-5 to EC50 on huCD163 ECD
[4] = target: human CD163 expressed on human myeloid cells (M2c macrophages, M2 macrophages, in vitro MDSCs) (human) (UniProt Q86VB7); assay: flow cytometry, APC-labelled anti-huCD163 on M2c macrophages pre-treated with 200 ug/mL goat control polyclonal antibody
[5] = target: purified recombinant human CD163 protein used for SPR (human) (UniProt Q86VB7); assay: SPR (Biacore T200), CD163 amine-coupled to chip, antibody as analyte, EDTA buffer
[6] = target: purified recombinant human CD163 protein used for SPR (human) (UniProt Q86VB7); assay: SPR (Biacore T200), CD163 amine-coupled to chip, antibody as analyte, calcium-containing buffer
[7] = target: recombinant murine CD163 (R&D Systems, No. 7435-CD-050) (murine) (UniProt Q2VLH6); assay: ELISA, plate coated with 5 ug/mL recombinant murine CD163, A450
[8] = target: His-tagged recombinant human CD163 (R&D Systems, No. 1607-CD-050) (human) (UniProt Q86VB7); assay: ELISA, plate coated with 5 ug/mL His-tagged recombinant human CD163, HRP anti-mouse IgG F(ab')2, A450
[9] = target: human CD163 expressed on human myeloid cells (M2c macrophages, M2 macrophages, in vitro MDSCs) (human) (UniProt Q86VB7); assay: flow cytometry, unconjugated anti-CD163 (MAB1607) with labelled secondary antibody on untreated M2c macrophages

Sequence of truncated human CD163 ECD SRCR domain 1-5 fragment with C-terminus histidine tag (HEK293-6E) (human) (Q86VB7 42-578 limits assumed): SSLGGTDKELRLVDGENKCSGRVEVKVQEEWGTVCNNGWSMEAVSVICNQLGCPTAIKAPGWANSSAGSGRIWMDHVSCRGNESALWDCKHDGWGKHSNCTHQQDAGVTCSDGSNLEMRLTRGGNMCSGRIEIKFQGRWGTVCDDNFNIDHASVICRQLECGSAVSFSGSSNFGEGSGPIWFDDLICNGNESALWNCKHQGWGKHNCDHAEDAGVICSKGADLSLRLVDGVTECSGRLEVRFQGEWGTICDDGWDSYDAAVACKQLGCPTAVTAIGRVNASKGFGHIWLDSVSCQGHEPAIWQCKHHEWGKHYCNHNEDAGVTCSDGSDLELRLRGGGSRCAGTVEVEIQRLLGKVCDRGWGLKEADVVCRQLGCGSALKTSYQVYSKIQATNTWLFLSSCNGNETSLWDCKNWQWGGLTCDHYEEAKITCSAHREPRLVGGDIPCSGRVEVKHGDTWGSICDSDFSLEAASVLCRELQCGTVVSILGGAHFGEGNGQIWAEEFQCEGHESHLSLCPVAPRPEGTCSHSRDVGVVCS
Sequence of human CD163 ECD with a C-terminal 8 histidine tag (HEK293-6E) (human) (Q86VB7 other isoform, or with tags, fused parts or gaps limits assumed): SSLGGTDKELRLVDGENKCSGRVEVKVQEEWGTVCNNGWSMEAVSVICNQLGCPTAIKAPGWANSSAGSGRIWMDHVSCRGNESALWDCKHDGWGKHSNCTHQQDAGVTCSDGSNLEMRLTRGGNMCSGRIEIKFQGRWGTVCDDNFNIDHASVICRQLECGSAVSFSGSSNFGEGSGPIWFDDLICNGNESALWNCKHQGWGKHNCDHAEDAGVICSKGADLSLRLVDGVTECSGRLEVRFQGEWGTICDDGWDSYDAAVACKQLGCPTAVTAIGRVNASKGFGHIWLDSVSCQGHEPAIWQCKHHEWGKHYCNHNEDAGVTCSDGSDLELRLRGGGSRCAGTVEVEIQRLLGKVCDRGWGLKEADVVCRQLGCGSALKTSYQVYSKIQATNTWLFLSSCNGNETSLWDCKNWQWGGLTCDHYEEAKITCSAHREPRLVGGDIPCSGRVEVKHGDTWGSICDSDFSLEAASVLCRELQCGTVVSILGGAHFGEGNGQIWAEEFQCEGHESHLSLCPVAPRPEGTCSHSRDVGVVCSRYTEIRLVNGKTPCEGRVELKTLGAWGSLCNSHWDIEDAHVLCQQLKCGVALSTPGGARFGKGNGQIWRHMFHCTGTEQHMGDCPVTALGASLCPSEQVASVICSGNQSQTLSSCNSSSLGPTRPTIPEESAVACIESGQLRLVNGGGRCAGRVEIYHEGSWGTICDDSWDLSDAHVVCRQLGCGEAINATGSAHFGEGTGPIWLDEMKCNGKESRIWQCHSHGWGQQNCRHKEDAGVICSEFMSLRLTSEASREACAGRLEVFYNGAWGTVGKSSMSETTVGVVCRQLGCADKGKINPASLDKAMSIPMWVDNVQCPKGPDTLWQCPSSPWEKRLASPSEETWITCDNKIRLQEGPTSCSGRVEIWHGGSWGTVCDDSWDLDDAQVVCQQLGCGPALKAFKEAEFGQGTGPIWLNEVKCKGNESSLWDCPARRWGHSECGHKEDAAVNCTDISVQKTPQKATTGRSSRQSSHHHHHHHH
Sequence of purified recombinant human CD163 protein used for SPR (human) (Q86VB7 46-1050 limits assumed): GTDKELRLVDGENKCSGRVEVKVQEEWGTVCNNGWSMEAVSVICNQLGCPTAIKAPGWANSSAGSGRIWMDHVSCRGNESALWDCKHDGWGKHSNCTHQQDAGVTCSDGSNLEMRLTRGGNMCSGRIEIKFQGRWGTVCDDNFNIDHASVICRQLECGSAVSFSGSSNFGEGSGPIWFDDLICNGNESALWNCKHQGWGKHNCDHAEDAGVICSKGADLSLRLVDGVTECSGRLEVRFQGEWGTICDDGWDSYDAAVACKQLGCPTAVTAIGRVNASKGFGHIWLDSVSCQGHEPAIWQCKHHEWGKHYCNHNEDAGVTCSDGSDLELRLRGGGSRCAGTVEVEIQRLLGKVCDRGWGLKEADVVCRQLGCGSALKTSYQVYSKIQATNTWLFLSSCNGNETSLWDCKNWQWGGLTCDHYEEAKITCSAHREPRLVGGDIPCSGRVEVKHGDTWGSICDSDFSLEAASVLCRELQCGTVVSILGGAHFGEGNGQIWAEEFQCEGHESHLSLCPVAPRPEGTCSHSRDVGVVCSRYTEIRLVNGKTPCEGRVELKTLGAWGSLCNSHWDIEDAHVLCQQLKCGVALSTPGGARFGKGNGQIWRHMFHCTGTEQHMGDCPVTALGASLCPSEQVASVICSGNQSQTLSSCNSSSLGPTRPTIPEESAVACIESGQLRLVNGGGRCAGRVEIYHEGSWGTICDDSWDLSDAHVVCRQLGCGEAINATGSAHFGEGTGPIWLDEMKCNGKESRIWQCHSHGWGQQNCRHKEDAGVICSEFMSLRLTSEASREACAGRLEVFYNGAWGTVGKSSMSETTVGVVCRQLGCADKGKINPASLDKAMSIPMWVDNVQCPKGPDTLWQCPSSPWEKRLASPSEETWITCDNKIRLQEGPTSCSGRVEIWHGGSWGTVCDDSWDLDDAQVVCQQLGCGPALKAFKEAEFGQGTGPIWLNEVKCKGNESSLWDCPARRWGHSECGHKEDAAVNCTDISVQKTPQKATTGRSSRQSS
Sequence of human CD163 expressed on human myeloid cells (M2c macrophages, M2 macrophages, in vitro MDSCs) (human) (Q86VB7 42-1114, tags or fused parts left off): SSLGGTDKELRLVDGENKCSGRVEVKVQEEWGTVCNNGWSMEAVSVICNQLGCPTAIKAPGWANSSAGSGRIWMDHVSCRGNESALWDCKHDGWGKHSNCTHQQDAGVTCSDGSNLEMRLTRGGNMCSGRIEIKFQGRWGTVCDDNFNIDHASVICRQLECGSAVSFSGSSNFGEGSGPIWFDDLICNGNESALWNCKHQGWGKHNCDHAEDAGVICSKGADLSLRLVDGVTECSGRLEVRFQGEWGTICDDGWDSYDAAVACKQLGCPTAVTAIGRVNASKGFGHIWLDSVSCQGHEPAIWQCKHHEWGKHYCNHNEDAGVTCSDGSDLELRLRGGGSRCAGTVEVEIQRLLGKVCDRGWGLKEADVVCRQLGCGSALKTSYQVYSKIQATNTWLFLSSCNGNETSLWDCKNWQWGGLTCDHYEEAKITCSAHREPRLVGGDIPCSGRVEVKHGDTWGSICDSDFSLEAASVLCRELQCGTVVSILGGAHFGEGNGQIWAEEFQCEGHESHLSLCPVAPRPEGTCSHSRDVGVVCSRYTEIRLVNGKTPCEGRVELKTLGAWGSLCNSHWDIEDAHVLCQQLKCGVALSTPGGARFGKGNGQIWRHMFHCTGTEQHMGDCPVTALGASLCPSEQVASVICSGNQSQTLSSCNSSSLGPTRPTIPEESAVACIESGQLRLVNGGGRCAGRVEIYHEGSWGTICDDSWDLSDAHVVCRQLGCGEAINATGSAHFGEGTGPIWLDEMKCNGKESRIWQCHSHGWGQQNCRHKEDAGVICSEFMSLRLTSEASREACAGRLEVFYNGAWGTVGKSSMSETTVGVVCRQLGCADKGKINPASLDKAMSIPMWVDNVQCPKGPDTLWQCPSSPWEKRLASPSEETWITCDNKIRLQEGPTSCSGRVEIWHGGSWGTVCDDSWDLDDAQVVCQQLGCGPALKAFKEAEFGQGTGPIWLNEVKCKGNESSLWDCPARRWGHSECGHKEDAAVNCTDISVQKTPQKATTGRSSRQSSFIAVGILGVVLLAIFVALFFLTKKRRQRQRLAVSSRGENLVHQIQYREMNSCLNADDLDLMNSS
Sequence of recombinant murine CD163 (R&D Systems, No. 7435-CD-050) (murine) (Q2VLH6 39-1045 limits assumed): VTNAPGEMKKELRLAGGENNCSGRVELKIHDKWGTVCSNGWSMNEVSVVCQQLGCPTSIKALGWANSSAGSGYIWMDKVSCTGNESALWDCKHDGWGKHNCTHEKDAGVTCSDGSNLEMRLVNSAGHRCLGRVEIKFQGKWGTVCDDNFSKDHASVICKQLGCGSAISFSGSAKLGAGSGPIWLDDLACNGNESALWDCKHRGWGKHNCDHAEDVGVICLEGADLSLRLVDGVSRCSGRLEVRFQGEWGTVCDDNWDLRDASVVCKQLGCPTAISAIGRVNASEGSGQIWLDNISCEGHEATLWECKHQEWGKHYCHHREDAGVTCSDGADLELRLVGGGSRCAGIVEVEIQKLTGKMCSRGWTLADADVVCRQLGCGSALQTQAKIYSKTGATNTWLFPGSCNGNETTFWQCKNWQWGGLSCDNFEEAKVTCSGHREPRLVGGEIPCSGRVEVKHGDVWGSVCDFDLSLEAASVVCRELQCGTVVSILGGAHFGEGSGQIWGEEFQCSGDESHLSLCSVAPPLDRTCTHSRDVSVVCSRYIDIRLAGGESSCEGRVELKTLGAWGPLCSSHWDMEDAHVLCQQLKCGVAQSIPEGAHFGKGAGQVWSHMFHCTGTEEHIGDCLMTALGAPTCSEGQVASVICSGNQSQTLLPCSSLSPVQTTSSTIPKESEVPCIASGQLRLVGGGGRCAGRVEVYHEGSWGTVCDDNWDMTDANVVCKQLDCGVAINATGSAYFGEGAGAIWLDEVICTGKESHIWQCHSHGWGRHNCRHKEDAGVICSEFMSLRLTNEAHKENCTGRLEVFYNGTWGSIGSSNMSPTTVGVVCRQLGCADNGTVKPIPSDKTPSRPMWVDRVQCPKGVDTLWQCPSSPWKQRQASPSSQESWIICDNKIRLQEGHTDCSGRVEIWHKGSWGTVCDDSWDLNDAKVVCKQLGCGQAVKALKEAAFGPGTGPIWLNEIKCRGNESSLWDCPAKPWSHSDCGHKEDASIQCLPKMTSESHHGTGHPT

## 215927 (antibody)
[1]
  EC50: 0.017 nM
[2]
  EC50: 0.02 nM
[3]
  Ratio SRCR 1-5/ECD (EC50): 1.17

## APC-labeled anti-huCD163 antibody (R&D Systems, #FAB1607A)
[4]
  EC50 (read off the curve): 10 nM

## EDHu-1 (antibody)
[1]
  EC50: 0.052 nM
[2]
  EC50: 0.05 nM
[3]
  Ratio SRCR 1-5/ECD (EC50): 0.96

## RM3/1 (antibody)
[1]
  EC50: 0.061 nM

## anti-CD163 clone GHI/61 (antibody)
[5]
  Kd: 12 nM
  koff: 0.000178 s⁻¹
  kon: 14800 M⁻¹ s⁻¹
[6]
  Kd: 63 nM
  koff: 0.000467 s⁻¹
  kon: 7320 M⁻¹ s⁻¹

## commercially available rat anti-muCD163 antibody (Thermo Fisher Scientific #14-1631-82)
[7]
  EC50 (read off the curve): 0.02 nM

## control anti-huCD163 antibody, murine IgG1 (R&D Systems, #MAB1607)
[8]
  EC50 (read off the curve): 0.01 nM
[9]
  EC50 (read off the curve): 3 nM
